Assay results from the supplement of paper PMC10567573.

B1: INTS4 (parent)
chain: AKQIMEETYKMEFMYSGVENKQVV

Variants of: B1
Experiment: protein stability index of a GFP-peptide fusion (GPS, HEK-293T) (PSI 1-6); higher = more stable
Conditions: c terminus: a fixed tail appended
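Also: lentivirally expressed fusions sorted by FACS into six bins by GFP to DsRed ratio, PSI derived from sequencing read proportions per bin multiplied by bin number.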

| Variant | protein stability index |
| --- | --- |
| AKQITEETYKMEFMYSGVENKQVV [M5T] | 2.98 |
| AKQIMEETYVMEFMYSGVENKQVV [K10V] | 2.64 |
| AKQTMEETYKMEFMYSGVENKQVV [I4T] | 2.9 |
| AKQIMEETYKMFFMYSGVENKQVV [E12F] | 1.95 |
| ATQIMEETYKMEFMYSGVENKQVV [K2T] | 2.54 |
| ALQIMEETYKMEFMYSGVENKQVV [K2L] | 2.62 |
| AKQIMEETYKMEFQYSGVENKQVV [M14Q] | 2.11 |
| AKQIMEETYKMEFMYRGVENKQVV [S16R] | 1.36 |
| AKQIMEETYKMEFMYSGQENKQVV [V18Q] | 2.34 |
| AKQIMEETYKMEFMYSGPENKQVV [V18P] | 2.5 |
| AKQIMEVTYKMEFMYSGVENKQVV [E7V] | 2.97 |
| AKQIMERTYKMEFMYSGVENKQVV [E7R] | 2.55 |
| AKQIMEETYKMEFMYSGVENKQVT [V24T] | 1.72 |
| AKQIWEETYKMEFMYSGVENKQVV [M5W] | 2.11 |
| AKQIMEETYKMEFMMSGVENKQVV [Y15M] | 2.54 |
| AKQIMEETYKMEFMYSGVEVKQVV [N20V] | 1.17 |
| LKQIMEETYKMEFMYSGVENKQVV [A1L] | 2.44 |
| AKQIMEETYKMEQMYSGVENKQVV [F13Q] | 3.12 |
| AKRIMEETYKMEFMYSGVENKQVV [Q3R] | 1.7 |
| AKQIMEETYKMEFMYLGVENKQVV [S16L] | 2.08 |
| AKPIMEETYKMEFMYSGVENKQVV [Q3P] | 2.85 |
| AKQIMEETYYMEFMYSGVENKQVV [K10Y] | 2.14 |
| AKQIMEETYKHEFMYSGVENKQVV [M11H] | 3.56 |
| AKQIMEETPKMEFMYSGVENKQVV [Y9P] | 3.78 |

| Variant | protein stability index |
| --- | --- |
| AKQIFEETYKMEFMYSGVENKQVV [M5F] | 1.79 |
| AKAIMEETYKMEFMYSGVENKQVV [Q3A] | 2.15 |
| AKQIVEETYKMEFMYSGVENKQVV [M5V] | 2.2 |
| AKQVMEETYKMEFMYSGVENKQVV [I4V] | 2.42 |
| AKQIMEETYKMEFMYSGVEYKQVV [N20Y] | 1.73 |
| AKQIMEETYKMEFTYSGVENKQVV [M14T] | 1.63 |
| AKIIMEETYKMEFMYSGVENKQVV [Q3I] | 2.17 |
| AQQIMEETYKMEFMYSGVENKQVV [K2Q] | 2.27 |
| AKQYMEETYKMEFMYSGVENKQVV [I4Y] | 2.48 |
| AKQIMEETYKEEFMYSGVENKQVV [M11E] | 3.9 |
| AKQIMEETYQMEFMYSGVENKQVV [K10Q] | 1.67 |
| AKQIMEEGYKMEFMYSGVENKQVV [T8G] | 1.41 |
| AKCIMEETYKMEFMYSGVENKQVV [Q3C] | 1.42 |
| AKQIMEETYIMEFMYSGVENKQVV [K10I] | 1.92 |
| AKQIMEETYKMEFMYSEVENKQVV [G17E] | 1.55 |
| AKQIMEETYKMEFMYPGVENKQVV [S16P] | 2 |
| AKQIMEETYKMEFAYSGVENKQVV [M14A] | 2.25 |
| AKEIMEETYKMEFMYSGVENKQVV [Q3E] | 2.3 |
| AKQIMEETYKMELMYSGVENKQVV [F13L] | 2.26 |
| AKQLMEETYKMEFMYSGVENKQVV [I4L] | 1.35 |
| AKYIMEETYKMEFMYSGVENKQVV [Q3Y] | 1.84 |
| AKQIMEETYKMEFMGSGVENKQVV [Y15G] | 1.55 |
| AKQIMEETYKMEFMYSGSENKQVV [V18S] | 2.07 |
| AKQIMEEQYKMEFMYSGVENKQVV [T8Q] | 2.19 |

| Variant | protein stability index |
| --- | --- |
| AKQIPEETYKMEFMYSGVENKQVV [M5P] | 2.54 |
| DKQIMEETYKMEFMYSGVENKQVV [A1D] | 3.46 |
| AKQIMEETYKMEFMYSGVYNKQVV [E19Y] | 1.09 |
| AKQIMEETYKMEFMYMGVENKQVV [S16M] | 2.24 |
| AKQIMEETYKMEWMYSGVENKQVV [F13W] | 1.79 |
| AKQIDEETYKMEFMYSGVENKQVV [M5D] | 3.99 |
| AKQIMEETYKVEFMYSGVENKQVV [M11V] | 1.9 |
| AKQIMEEEYKMEFMYSGVENKQVV [T8E] | 2.69 |
| AKQIMEETYKMEFMYSGMENKQVV [V18M] | 1.75 |
| AKQIMEETYKMEFMYIGVENKQVV [S16I] | 2.62 |
| AKQIMEETYKMEFMYYGVENKQVV [S16Y] | 1.76 |
| AKQIMEEHYKMEFMYSGVENKQVV [T8H] | 2.54 |
| SKQIMEETYKMEFMYSGVENKQVV [A1S] | 2.82 |
| AKQIMQETYKMEFMYSGVENKQVV [E6Q] | 1.77 |
| AKQIKEETYKMEFMYSGVENKQVV [M5K] | 3.05 |
| AKQIMEETYKMEFMYSGWENKQVV [V18W] | 1.95 |
| AKQINEETYKMEFMYSGVENKQVV [M5N] | 3.75 |
| AKQIMEETYKMEFMYSAVENKQVV [G17A] | 1.51 |
| AKQIMEETYKMEDMYSGVENKQVV [F13D] | 4.6 |
| QKQIMEETYKMEFMYSGVENKQVV [A1Q] | 2.52 |
| AKQIMEETYKMGFMYSGVENKQVV [E12G] | 2.66 |
| AKQIMEETYKMEGMYSGVENKQVV [F13G] | 3.94 |
| AKQIMEETYKMEYMYSGVENKQVV [F13Y] | 2.96 |
| AKWIMEETYKMEFMYSGVENKQVV [Q3W] | 2.53 |

| Variant | protein stability index |
| --- | --- |
| AKQIMEETYKMEFMYSGVENKQHV [V23H] | 1.88 |
| AKQIMEETYKMEFMYSGVGNKQVV [E19G] | 1.9 |
| AKQIMEETEKMEFMYSGVENKQVV [Y9E] | 4.34 |
| WKQIMEETYKMEFMYSGVENKQVV [A1W] | 2.44 |
| AKQIMEETYKMEFMYGGVENKQVV [S16G] | 2.14 |
| AKQQMEETYKMEFMYSGVENKQVV [I4Q] | 2.3 |
| AKQIMEETMKMEFMYSGVENKQVV [Y9M] | 3.43 |
| AKQIMEETYKMEFMYSGVENGQVV [K21G] | 2.5 |
| AKQIMEETYKMEFMYSGVTNKQVV [E19T] | 1.85 |
| AKMIMEETYKMEFMYSGVENKQVV [Q3M] | 1.51 |
| AKQIMEETYKMEFMYSGVVNKQVV [E19V] | 1.28 |
| AKQIMEETYKMEFMHSGVENKQVV [Y15H] | 1.88 |
| AFQIMEETYKMEFMYSGVENKQVV [K2F] | 2.51 |
| YKQIMEETYKMEFMYSGVENKQVV [A1Y] | 2.1 |
| AKQIMEETYKMEFMPSGVENKQVV [Y15P] | 3.04 |
| AKQIMEETYKMETMYSGVENKQVV [F13T] | 3.57 |
| AKQIMEETYKMEKMYSGVENKQVV [F13K] | 3.12 |
| AKQIMETTYKMEFMYSGVENKQVV [E7T] | 1.96 |
| AKQIMEETYKMEFMYSGVEDKQVV [N20D] | 1.33 |
| AKQIMEETYKMVFMYSGVENKQVV [E12V] | 1.06 |
| AKQIMGETYKMEFMYSGVENKQVV [E6G] | 3.01 |
| AKQIMEETYKMEFMDSGVENKQVV [Y15D] | 2.37 |
